# Reference: US20100260668A1 (published 2010)
# B1: DVD497 (bispecific antibody, human IgG1, kappa)
# heavy: not shown
# light: DIQMTQSSSYLSVSLGGRVTITCKASDHINNWLAWYQQKPGNAPRLLISGATSLETGVPSRFSGSGSGKDYTLSITSLQTEDVATYYCQQYWSIPLTFGAGTKLELKRTVAAPSVFIFPPDIQMTQSPSSLSASVGDRVTITCRASQVIRRSLAWYQQKPGKAPKLLIYAASNLASGVPSRFSGSGSGTDFTLTISSLQPEDFATYYCQQSNTSPLTFGQGTKVEIKRTVAAPSVFIFPPSDEQLKSGTASVVCLLNNFYPREAKVQWKVDNALQSGNSQESVTEQDSKDSTYSLSSTLTLSKADYEKHKVYACEVTHQGLSSPVTKSFNRGEC
# notes: DVD-Ig; N-term; VD DLL4 (AB072), C-term; VD VEGF (AB071); HC linker long, LC linker long; also called DVD-Ig DVD497; DVD497H
# B2: DVD509 (bispecific antibody, human IgG1, kappa)
# heavy: not shown
# light: B1 light
# notes: DVD-Ig; N-term; VD DLL4 (AB072), C-term; VD VEGF (AB071); HC linker short, LC linker long; also called DVD-Ig DVD509; DVD509H
# B3: DVD491 (bispecific antibody, human IgG1, kappa)
# heavy: not shown
# light: DIQMTQSSSYLSVSLGGRVTITCKASDHINNWLAWYQQKPGNAPRLLISGATSLETGVPSRFSGSGSGKDYTLSITSLQTEDVATYYCQQYWSIPLTFGAGTKLELKRTVAAPDIQMTQSPSSLSASVGDRVTITCRASQVIRRSLAWYQQKPGKAPKLLIYAASNLASGVPSRFSGSGSGTDFTLTISSLQPEDFATYYCQQSNTSPLTFGQGTKVEIKRTVAAPSVFIFPPSDEQLKSGTASVVCLLNNFYPREAKVQWKVDNALQSGNSQESVTEQDSKDSTYSLSSTLTLSKADYEKHKVYACEVTHQGLSSPVTKSFNRGEC
# notes: DVD-Ig; N-term; VD DLL4 (AB072), C-term; VD VEGF (AB071); HC linker short, LC linker short; also called DVD-Ig DVD491; DVD491H
# B4: DVD503 (bispecific antibody, human IgG1, kappa)
# heavy: not shown
# light: B3 light
# notes: DVD-Ig; N-term; VD DLL4 (AB072), C-term; VD VEGF (AB071); HC linker long, LC linker short; also called DVD-Ig DVD503; DVD503H
# B5: DVD533 (bispecific antibody, human IgG1, kappa, lambda, L234A L235A)
# heavy: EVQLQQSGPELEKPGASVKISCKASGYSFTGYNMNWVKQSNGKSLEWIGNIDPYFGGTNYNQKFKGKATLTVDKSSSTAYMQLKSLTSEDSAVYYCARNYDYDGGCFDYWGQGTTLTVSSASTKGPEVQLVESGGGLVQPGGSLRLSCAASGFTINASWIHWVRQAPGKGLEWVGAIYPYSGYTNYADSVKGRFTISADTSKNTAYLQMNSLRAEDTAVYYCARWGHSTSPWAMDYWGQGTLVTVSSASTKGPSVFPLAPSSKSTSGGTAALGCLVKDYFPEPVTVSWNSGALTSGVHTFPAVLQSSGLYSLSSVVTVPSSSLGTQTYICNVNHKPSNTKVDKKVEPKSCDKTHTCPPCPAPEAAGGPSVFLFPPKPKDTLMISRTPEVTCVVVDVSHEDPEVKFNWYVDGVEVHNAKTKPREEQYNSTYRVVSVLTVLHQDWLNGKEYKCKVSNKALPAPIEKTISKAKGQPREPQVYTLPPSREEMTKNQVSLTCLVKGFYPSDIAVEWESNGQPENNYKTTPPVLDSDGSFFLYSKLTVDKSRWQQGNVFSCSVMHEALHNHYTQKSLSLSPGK
# light: QAVVTQESALTTSPGETVTLTCRSSTGAVTTSNYANWVQEKPDHLFTGLIGGTNNRAPGVPARFSGSLIGDKAALTITGAQTEDEAIYFCALWYSNHWVFGGGTKLTVLGQPKAAPSVTLFPPDIQMTQSPSSLSASVGDRVTITCRASQVIRRSLAWYQQKPGKAPKLLIYAASNLASGVPSRFSGSGSGTDFTLTISSLQPEDFATYYCQQSNTSPLTFGQGTKVEIKRTVAAPSVFIFPPSDEQLKSGTASVVCLLNNFYPREAKVQWKVDNALQSGNSQESVTEQDSKDSTYSLSSTLTLSKADYEKHKVYACEVTHQGLSSPVTKSFNRGEC
# notes: DVD-Ig; N-term; VD DLL4 (AB073), C-term; VD VEGF (AB071); HC linker short, LC linker long; also called DVD-Ig DVD533; DVD533H
# B6: DVD468 (bispecific antibody, human IgG1, kappa)
# heavy: not shown
# light: DIQMTQSPSSLSASVGDRVTITCRASQVIRRSLAWYQQKPGKAPKLLIYAASNLASGVPSRFSGSGSGTDFTLTISSLQPEDFATYYCQQSNTSPLTFGQGTKVEIKRTVAAPDIQMTQSPSSLSASVGDRVTITCRASQDVSTAVAWYQQKPGKAPKLLIYSASFLYSGVPSRFSGSGSGTDFTLTISSLQPEDFATTYYCQQSYTGTVTFGQGTKVEIKRTVAAPSVFIFPPSDEQLKSGTASVVCLLNNFYPREAKVQWKVDNALQSGNSQESVTEQDSKDSTYSLSSTLTLSKADYEKHKVYACEVTHQGLSSPVTKSFNRGEC
# notes: DVD-Ig; N-term; VD VEGF (AB071), C-term; VD DLL4 (AB015); HC linker short, LC linker short; also called DVD-Ig DVD468; DVD468H
# Molecular target: T1, DLL4 (DLL ECD His tag, R&D 1506-D4-050) (UniProt Q9NR61 27-529)
# T1 construct: extracellular domain; bought
# Test: BIACORE (SPR), DVD-Ig against DLL4
Binder,Kd [nM],koff [s⁻¹],kon [M⁻¹ s⁻¹]
B1,0.266,7.12e-05,268000
B2,0.153,3.52e-05,230000
B3,0.237,6.35e-05,267000
B4,0.192,4.72e-05,246000
B5,2.22,0.00133,598000
B6,3.76,0.000219,58200
